Values quoted from earlier work, collected in PMC12188314.

Target: Rab27A (Mus musculus) (UniProt Q9ERI2)
Chain of UniProt Q9ERI2 (Q9ERI2 2-221): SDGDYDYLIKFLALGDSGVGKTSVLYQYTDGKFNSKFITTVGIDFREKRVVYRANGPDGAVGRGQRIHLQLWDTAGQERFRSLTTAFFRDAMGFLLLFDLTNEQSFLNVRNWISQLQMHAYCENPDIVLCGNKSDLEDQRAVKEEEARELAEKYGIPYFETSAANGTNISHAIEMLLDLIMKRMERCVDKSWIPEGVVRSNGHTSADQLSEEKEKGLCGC

Slp2-a SHD (from UniProt Q99N50)
Kd: 0.013 µM
